Here are results for one molecule from patent US20210340238A1 (SCHOLAR ROCK, published 2021).

In general, Kd refers to a measure of binding affinity in units of concentration.

Test [1] deals with T1, recombinant human LRRC33-proTGFβ1 complex (human, UniProt Q86YC3 19-650; P01137 30-390, limits assumed).
T1 construct: Purified complex of the Octet and MSD-SET assays, biotinylated; also called hLRRC33; hLRRC33-proTGFβ1
As to the kind of experiment: MSD-SET; IgG4 from mammalian cells.

Test [2] concerns the target T2, recombinant human LTBP3-proTGFβ1 complex (human, UniProt Q9NS15 44-1303; P01137 30-390, limits assumed).
T2 construct: Biotinylated in the Octet and MSD-SET assays; In the potency assay it was made by cells transfected with human LTBP3 and proTGFβ1 plasmids and deposited in the ECM; also called hLTBP3; hLTBP3-proTGFβ1
As to the kind of experiment: MSD-SET; IgG4 from mammalian cells.

The target of test [3] is T3, recombinant human LTBP1-proTGFβ1 complex (human, UniProt Q14766 347-1721; P01137 30-390).
T3 construct: Biotinylated in the Octet and MSD-SET assays; In the potency assay it was made by cells transfected with human LTBP1S and proTGFβ1 plasmids and deposited in the ECM; also called hLTBP1; hLTBP1-proTGFβ1
T3 sequence (Q14766 347-1721 limits assumed, chain 1 of 2): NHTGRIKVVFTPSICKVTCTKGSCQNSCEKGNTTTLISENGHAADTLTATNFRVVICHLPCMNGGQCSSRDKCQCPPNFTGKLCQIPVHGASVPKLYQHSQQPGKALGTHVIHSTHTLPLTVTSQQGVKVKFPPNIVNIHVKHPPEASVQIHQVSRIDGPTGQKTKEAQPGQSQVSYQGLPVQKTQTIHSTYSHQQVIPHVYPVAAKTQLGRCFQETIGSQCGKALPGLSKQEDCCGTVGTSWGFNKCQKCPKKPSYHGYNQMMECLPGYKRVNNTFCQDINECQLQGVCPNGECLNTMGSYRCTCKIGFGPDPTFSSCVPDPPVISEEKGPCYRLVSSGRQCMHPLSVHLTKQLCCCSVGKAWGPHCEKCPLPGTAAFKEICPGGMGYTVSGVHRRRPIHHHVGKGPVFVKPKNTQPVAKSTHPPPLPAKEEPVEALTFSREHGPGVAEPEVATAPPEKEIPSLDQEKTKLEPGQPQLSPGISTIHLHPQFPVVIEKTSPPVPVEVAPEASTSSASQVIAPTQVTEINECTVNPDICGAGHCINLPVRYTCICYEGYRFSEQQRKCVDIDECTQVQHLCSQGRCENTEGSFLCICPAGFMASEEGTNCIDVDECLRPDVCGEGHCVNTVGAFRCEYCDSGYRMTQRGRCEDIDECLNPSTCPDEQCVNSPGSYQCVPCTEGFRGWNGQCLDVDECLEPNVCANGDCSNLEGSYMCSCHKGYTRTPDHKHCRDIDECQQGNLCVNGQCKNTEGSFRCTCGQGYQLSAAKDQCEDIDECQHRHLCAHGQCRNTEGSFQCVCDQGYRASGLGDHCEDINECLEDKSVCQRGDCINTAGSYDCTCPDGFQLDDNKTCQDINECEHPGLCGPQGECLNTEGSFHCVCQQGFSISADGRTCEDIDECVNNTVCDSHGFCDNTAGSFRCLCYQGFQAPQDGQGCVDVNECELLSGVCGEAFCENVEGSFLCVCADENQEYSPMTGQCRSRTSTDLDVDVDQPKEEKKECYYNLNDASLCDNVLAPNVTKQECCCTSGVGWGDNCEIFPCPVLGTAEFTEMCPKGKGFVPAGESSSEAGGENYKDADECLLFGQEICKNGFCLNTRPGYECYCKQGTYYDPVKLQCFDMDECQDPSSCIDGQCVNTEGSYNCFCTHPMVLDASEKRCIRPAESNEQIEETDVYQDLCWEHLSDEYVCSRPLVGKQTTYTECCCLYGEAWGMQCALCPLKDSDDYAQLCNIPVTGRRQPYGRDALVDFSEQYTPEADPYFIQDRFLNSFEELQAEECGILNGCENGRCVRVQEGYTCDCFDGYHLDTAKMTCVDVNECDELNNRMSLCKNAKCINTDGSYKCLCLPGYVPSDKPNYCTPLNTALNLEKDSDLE
T3 sequence (P01137 30-390 limits assumed, chain 2 of 2): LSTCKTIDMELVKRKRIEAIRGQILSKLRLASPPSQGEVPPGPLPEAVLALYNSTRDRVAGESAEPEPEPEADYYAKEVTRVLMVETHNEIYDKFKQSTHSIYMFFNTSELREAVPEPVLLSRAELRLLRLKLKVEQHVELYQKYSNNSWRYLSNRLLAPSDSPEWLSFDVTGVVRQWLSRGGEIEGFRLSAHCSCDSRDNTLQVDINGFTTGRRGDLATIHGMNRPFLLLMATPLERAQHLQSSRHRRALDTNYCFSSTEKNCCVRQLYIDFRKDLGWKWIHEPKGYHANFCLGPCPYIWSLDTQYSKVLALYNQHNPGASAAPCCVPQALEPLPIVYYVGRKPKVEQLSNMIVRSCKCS
As to the kind of experiment: MSD-SET; IgG4 from mammalian cells.

Test [4] has as its target T4, recombinant human GARP-proTGFβ1 complex (human, UniProt Q14392 20-627; P01137 30-390, limits assumed).
T4 construct: Purified complex of the Octet and MSD-SET assays, biotinylated; also called hGARP; hGARP-proTGFβ1
Briefly: MSD-SET; IgG4 from mammalian cells.

Test [5] deals with human GARP-proTGFβ1 complex presented on the cell surface (human, UniProt Q14392 20-662; P01137 30-390). Briefly: cell-based or functional assay.
The target of test [6] is T2, recombinant human LTBP3-proTGFβ1 complex. Briefly: cell-based or functional assay.
The target of test [7] is T3, recombinant human LTBP1-proTGFβ1 complex. As to the kind of experiment: cell-based or functional assay.
Test [8] addresses human LRRC33-proTGFβ1 complex presented on the cell surface (human, UniProt Q86YC3 19-692; P01137 30-390). As to the kind of experiment: cell-based or functional assay.
Test [9] has as its target T1, recombinant human LRRC33-proTGFβ1 …. Briefly: Octet (BLI); IgG1 from yeast.
Test [10] has as its target T2, recombinant human LTBP3-proTGFβ1 complex. Briefly: Octet (BLI); IgG1 from yeast.
The target of test [11] is T3, recombinant human LTBP1-proTGFβ1 complex. As to the kind of experiment: Octet (BLI); IgG1 from yeast.
The target in test [12] is T4, recombinant human GARP-proTGFβ1 complex. As to the kind of experiment: Octet (BLI); IgG1 from yeast.

T2 sequence (Q9NS15 44-1303 limits assumed, chain 1 of 2): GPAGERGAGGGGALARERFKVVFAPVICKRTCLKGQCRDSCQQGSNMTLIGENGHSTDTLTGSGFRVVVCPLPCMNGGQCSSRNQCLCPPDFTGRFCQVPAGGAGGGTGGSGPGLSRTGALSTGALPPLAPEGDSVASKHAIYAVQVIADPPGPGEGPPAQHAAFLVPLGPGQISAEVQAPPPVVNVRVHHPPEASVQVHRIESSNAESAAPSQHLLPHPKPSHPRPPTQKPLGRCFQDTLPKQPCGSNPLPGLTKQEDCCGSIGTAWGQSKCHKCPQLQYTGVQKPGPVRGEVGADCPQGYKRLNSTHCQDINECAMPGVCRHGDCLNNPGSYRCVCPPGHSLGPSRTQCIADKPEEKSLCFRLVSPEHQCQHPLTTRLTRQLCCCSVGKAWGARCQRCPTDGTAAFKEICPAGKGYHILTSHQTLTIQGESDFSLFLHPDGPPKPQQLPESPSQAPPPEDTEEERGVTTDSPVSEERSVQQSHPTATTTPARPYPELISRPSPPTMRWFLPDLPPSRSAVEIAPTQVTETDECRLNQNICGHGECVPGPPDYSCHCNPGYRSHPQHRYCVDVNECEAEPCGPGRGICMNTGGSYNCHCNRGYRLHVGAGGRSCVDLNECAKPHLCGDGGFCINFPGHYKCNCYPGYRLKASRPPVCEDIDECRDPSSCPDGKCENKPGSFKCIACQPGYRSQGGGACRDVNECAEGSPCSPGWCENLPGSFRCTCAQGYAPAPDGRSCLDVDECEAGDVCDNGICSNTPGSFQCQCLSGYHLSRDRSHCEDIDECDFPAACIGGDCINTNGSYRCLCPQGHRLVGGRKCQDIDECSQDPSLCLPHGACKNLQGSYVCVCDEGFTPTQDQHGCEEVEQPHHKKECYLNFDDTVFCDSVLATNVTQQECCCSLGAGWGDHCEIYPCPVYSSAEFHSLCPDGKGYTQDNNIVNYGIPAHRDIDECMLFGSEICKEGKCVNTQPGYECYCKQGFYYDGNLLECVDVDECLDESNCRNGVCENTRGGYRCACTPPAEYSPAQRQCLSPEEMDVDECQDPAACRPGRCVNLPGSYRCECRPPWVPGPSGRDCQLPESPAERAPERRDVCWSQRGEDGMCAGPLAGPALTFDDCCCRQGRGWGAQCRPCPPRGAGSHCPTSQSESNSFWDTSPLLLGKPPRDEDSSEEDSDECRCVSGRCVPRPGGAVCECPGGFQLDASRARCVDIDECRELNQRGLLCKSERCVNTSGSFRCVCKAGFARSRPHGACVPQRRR
T2 sequence (P01137 30-390 limits assumed, chain 2 of 2): as the sequence (P01137 30-390 limits assumed, chain 2 of 2) above
T4 sequence (Q14392 20-627 limits assumed, chain 1 of 2): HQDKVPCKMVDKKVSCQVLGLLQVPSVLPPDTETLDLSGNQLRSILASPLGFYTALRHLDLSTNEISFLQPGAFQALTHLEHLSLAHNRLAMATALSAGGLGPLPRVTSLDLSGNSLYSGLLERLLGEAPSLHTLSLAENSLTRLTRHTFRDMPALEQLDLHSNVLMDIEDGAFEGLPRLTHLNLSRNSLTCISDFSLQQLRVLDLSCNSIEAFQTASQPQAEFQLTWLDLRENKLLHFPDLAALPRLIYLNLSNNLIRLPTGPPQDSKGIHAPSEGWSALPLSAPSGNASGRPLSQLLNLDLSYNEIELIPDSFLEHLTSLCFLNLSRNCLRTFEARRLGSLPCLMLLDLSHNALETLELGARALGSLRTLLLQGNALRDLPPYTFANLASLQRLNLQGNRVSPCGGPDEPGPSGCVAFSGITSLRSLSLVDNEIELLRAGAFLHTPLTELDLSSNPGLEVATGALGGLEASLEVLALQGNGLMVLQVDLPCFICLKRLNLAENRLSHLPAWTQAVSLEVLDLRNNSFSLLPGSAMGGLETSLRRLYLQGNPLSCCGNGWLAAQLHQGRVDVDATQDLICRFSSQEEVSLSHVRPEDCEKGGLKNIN
T4 sequence (P01137 30-390 limits assumed, chain 2 of 2): as the sequence (P01137 30-390 limits assumed, chain 2 of 2) above
T1 sequence (Q86YC3 19-650 limits assumed, chain 1 of 2): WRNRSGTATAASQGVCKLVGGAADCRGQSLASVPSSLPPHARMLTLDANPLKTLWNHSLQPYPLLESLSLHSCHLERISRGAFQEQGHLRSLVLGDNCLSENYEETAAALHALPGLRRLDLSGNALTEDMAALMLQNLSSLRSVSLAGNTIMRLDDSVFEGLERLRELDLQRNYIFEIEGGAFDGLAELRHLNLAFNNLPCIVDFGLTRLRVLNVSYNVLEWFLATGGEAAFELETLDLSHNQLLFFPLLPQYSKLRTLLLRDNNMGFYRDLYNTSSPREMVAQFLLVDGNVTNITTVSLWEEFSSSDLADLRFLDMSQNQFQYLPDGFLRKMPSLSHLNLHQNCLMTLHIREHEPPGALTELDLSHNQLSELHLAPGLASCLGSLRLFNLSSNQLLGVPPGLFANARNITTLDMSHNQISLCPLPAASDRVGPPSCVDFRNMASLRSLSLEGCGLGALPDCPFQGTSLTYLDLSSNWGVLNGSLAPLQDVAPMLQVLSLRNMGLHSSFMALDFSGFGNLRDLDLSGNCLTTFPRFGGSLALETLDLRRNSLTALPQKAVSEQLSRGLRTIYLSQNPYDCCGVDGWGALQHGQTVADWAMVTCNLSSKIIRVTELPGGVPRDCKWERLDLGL
T1 sequence (P01137 30-390 limits assumed, chain 2 of 2): as the sequence (P01137 30-390 limits assumed, chain 2 of 2) above

B1: Ab3 (antibody, V domains shown)
VH: EVQLLESGGGLVQPGGSLRLSCAASGFTFRNYAMSWVRQAPGKGLEWVSSISGSGGATYYADSVKGRFTISRDNSKNTLYLQMNSLRAEDTAVYYCARVSSGHWDFDYWGQGTLVTVSS
VL: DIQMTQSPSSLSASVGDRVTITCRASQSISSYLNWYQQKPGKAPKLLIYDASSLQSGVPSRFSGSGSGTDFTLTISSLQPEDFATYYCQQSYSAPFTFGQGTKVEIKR
For B1, the equilibrium dissociation constant (Kd) in [1] amounted to 35 nM; in [2] it was 16.2 nM; in test [3], 13 nM; in test [4], 28 nM; in test [9], 8.52 nM; in test [10], 0.459 nM. For the same molecule, the dissociation constant (Kd) is 0.47 nM in test [11] and 17.3 nM in [12]. Besides, the “IC50 (nM), cell-based potency assay, CAGA12 luciferase reporter” value in test [5] turned out to be 0.981 nM; in test [6], 10.4 nM; in test [7] it was 24.3 nM; in test [8], 0.858 nM.
